The text below walks through data of article PMC3867114, “Kinetic analysis of the interactions between plant thioredoxin and target proteins” (Frontiers in Plant Science, 2013).

Data set [1] concerns the molecule itself. As to the kind of experiment: SEC; TSK-G2000SWXL in H buffer, 280 nm; as a2 but without NEM treatment before the chromatography (for MDH: second round of the fractionated complex). On the technique in general: In gel filtration, larger molecules generally elute earlier.
In data set [2] the target is Trxh1 mutant with a C43S substitution (Arabidopsis thaliana) (UniProt P29448). Kind of data set: SPR; Biacore X, 25°C; Trx variant immobilised as ligand on a CM5 chip by amine coupling (800–900 RU); target protein injected as analyte; H buffer (10 mM HEPES-NaOH, 150 mM NaCl, 50 μM EDTA, pH 7.4) with 0.005% Surfactant P20; 1:1 model for MDH, double exponential model for PrxQ; apparent (mixed disulfide formation with Trxh1CS).

Data set [3] deals with the molecule itself. Kind of data set: mixed disulfide complex formation, non-reducing SDS-PAGE with N-terminal sequencing; 50 μM Trxh1CS and 50 μM PrxQ incubated for the periods indicated, quenched with 5% TCA, non-reducing SDS-PAGE.

B1: Arabidopsis thaliana cytosolic malate dehydrogenase, oxidized form (enzyme, UniProt P93819 1-332, looked up)
chain: MAKEPVRVLVTGAAGQIGYALVPMIARGIMLGADQPVILHMLDIPPAAEALNGVKMELIDAAFPLLKGVVATTDAVEGCTGVNVAVMVGGFPRKEGMERKDVMSKNVSIYKSQAAALEKHAAPNCKVLVVANPANTNALILKEFAPSIPEKNISCLTRLDHNRALGQISERLSVPVSDVKNVIIWGNHSSSQYPDVNHAKVQTSSGEKPVRELVKDDAWLDGEFISTVQQRGAAIIKARKLSSALSAASSACDHIRDWVLGTPEGTFVSMGVYSDGSYSVPSGLIYSFPVTCRNGDWSIVQGLPIDEVSRKKMDLTAEELKEEKDLAYSCLS
modifications: Cys330–Cys330 intermolecular disulfide bond (oxidized form)
notes: cytosolic malate dehydrogenase (MDH), Arabidopsis thaliana, AT1G04410; also called MDH; oxidized MDH; source: cloned and purified as described in earlier work; oxidized by incubation with 50 μM CuCl2 for 1 h at 30°C
As usually defined, the koff is a measure of how fast the partners let go of each other. As usually defined, the kon is the rate constant with which the complex forms. B1: the binding result in data set [1] is listed as “binds”. In addition, in data set [2], the koff stood at 0.000301 s⁻¹ and the kon worked out at 247 M⁻¹ s⁻¹.

B2: Trxh1 mutant with a C43S substitution (natural protein, Arabidopsis thaliana, UniProt P29448 1-114, looked up)
chain: MASEEGQVIACHTVETWNEQLQKANESKTLVVVDFTASWCGPSRFIAPFFADLAKKLPNVLFLKVDTDELKSVASDWAIQAMPTFMFLKEGKILDKVVGAKKDELQSTIAKHLA
notes: thioredoxin h1 (Trxh1), cytosolic, Arabidopsis thaliana, AT3G51030, with C43S; Lacks the second cysteine of the catalytic motif; also called Trxh1CS; Trxh1CS mutant; source: expressed and purified as the wild-type Trxh1, with 0.5 mM DTT in all purification procedures
With B2, the binding result in data set [3] is listed as “binds”.
